Measurements published in patent JP2021136920A.

Assays:
[1] = biological target: A−peakを架橋させたBSA(A−peak−BSA) (bovine) (UniProt P02769); assay: SPR, Biacore T200; A-peak-BSA amine-coupled on CM5 (72 RU), antibody 0.1953-50 nM, 1:1 binding model
[2] = biological target: Glycer−AGEs由来新規構造体修飾―ウシ血清アルブミン(GAL13−BSA) (bovine) (UniProt P02769); assay: SPR, Biacore T200; GAL13-BSA amine-coupled on CM5
[3] = biological target: グリセルアルデヒド由来AGEs含有ウシ血清アルブミン(Glycer−AGEs−BSA) (bovine) (UniProt P02769); assay: SPR, Biacore T200; Glycer-AGEs-BSA amine-coupled on CM5, antibody 0-400 nM

| Kd [1] [nM] | Kd [2] [nM] | Kd [3] [nM] | Binder |
| --- | --- | --- | --- |
| 4.15 | – | – | 新規モノクローナル抗体PB−1 (antibody, V domains shown) VH: EVRLQQSGPELVKPGTSVKISCKASGYSFTGYYMHWVKQSPVKSLEWIGRIIPYNGATSYNQNFKDKASLTVDKSSRTAYMDLHSLTSEDSAVYYCARSRYYGRAPYYFDYWGQGTTLTVSS VL: DVVVTQTPLSLPVSLGDQASISCRSSQSIVHSNGNTYLEWYLQKPGQSPKLLIYKVSNRFSGVPDRISGSGSGTDFTLKISRVEAGDLGVYSCFQGSHVPFTFGSGTKLEIK |
| – | 87.5 | 57.4 | 新規モノクローナル抗体SJ−5 (antibody, V domains shown) VH: EVMLVESGGRLVKPGGSLKLSCAASGFTFSSYGMSWVRQTPEKRLEWVATISGGGSYTYYPDSVKGRFTISRDNVKNNLYLQMSSLRSEDTALYYCARRGAYGDYGWFAYWGQGTLVTVSA VL: DIVLTQSPATLSVTPGDSVSLSCRASQSINNNLHWYQQKSHESPRLLIKCASQSISGIPSRFSGSGSGTDFTLSINSVETEDFGMYFCQQSNSWPLTFGAGTKLELK |
